From patent publication US11419945B2, “Antigen binding proteins” (Glaxo Group Limited, priority 2011, dated 2022)

Columns and labels:
BCMA-Fc = experiment: Biacore cross reactivity experiment, BCMA-Fc; format: binding; conditions: antibody captured on protein A
Description: (§1) CA8 chimera antibody was injected and captured on protein A. (A protein A derivitised sensorchip was used). Residual protein A binding was blocked with an injection of a high concentration of human IgG solution. BCMA-Fc, TACI-Fc or BAFF-R-Fc solutions were then tested for binding to the antibody. The 3 proteins were injected in sequence and binding events were measured. The surface was regenerated between injection of each protein.
(§2) Sensorgrams were analysed in the Biaevaluation program. Double reference subtraction was done to remove instrument noise and any non-specific binding from the sensorgram curves.

TACI-Fc = experiment: Biacore cross reactivity experiment, TACI-Fc; format: binding; conditions: antibody captured on protein A
Description: as §1, §2

BAFF-R-Fc = experiment: Biacore cross reactivity experiment, BAFF-R-Fc; format: binding; conditions: antibody captured on protein A; listed as CA8 chimera antibody
Description: as §1, §2

[1] = test system: multiple myeloma cell lines H929, OPM-2, JJN-3 and U266; experiment: FACS binding curve of chimeric CA8 to multiple myeloma cells; parameters: species or system human; conditions: varying concentrations, 20 minutes at RT
Description: A panel of multiple myeloma cell lines were used to determine the binding of chimeric CA8. […] Cells were then washed with FACS buffer (PBS+0.5% BSA+0.1% sodium azide) to remove unbound antibody. Cells were incubated with a secondary PE labelled anti-human IgG antibody for 15 minutes at RT and then washed with FACS buffer to remove unbound antibody. Cells were analysed by FACS and mean fluorescence intensity (MFI) values measured to determine binding.

Human in house BCMA = molecular target: T1, Human in house BCMA (Homo sapiens, UniProt Q02223); experiment: ProteOn analysis of CA8 chimeric and humanised constructs, human in house BCMA; format: binding; conditions: ProteOn, 25° C.; for ka: in M-1s-1 (unit assumed); for kd: in s-1 (unit assumed)
T1 construct: CD33 signal peptide (N); TEV site (internal); Fc (C); made in house
Procedure, shortened: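 SPR at 25 °C in HBS-EP: CA8 antibodies captured on Protein A-coated chip, recombinant BCMA injected at 256, 64, 16, 4, 1 nM with buffer double-referencing; NaOH regeneration. Kinetics from 1:1 model fit; run 2 also used commercial human BCMA.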

Cyno in house BCMA = experiment: BIAcore analysis J7 to J9 series, cyno in house BCMA; format: binding; conditions: 37° C.
[2] = test system: ARH77 BCMA transfected target cells (10B5); experiment: ADCC of chimeric and defucosylated chimeric CA8 with NK cells; format: cell-based; conditions: human NK cells, E:T ratio 5:1, 2 hours
Description: Human natural killer (NK) cells were incubated with europium labelled ARH77 BCMA transfected target cells (10B5) in the presence of varying concentrations of antibody at an E:T ratio of 5:1 for 2 hours. Europium release from the target cells was measured and specific lysis calculated.

[3] = test system: human multiple myeloma cell lines NCI-H929, U266-B1, JJN3 and OPM2; experiment: ADC activity of chimeric CA8 ADCs, 4 multiple myeloma cell lines (Cell titre Glo, 96 hours); format: cell-based; conditions: 1 ug/ml to 5 ng/ml, all 4 cell lines
Description: FIG. 11: Viability assay dose response curves—Figure showing dose response curves in a cell viability assay for chimeric CA8 antibody, chimeric CA8-vcMMAE and chimeric CA8-mcMMAF antibody-drug conjugates in human multiple myeloma cell lines NCI-H929, U266-B1, JJN3 and OPM2. Antibody was added to the cells and the number of viable cells after 96 hours measured using CelltiterGlo. Data points represent the mean of triplicate CellTiterGlo measurements. Error bars represent standard error.
Multiple Myeloma cell lines were treated with chimeric CA8 antibody-drug conjugates to determine the ADC concentrations required for growth inhibition and death.
The antibody drug conjugates tested were added to wells containing multiple myeloma cells at concentrations ranging from 1 ug/ml to 5 ng/ml. The plates were incubated at 37° C. for 96 hours at which point viable cells were quantitated using Cell titre Glo.

T1 sequence (Q02223 with tags, fused parts or gaps limits assumed): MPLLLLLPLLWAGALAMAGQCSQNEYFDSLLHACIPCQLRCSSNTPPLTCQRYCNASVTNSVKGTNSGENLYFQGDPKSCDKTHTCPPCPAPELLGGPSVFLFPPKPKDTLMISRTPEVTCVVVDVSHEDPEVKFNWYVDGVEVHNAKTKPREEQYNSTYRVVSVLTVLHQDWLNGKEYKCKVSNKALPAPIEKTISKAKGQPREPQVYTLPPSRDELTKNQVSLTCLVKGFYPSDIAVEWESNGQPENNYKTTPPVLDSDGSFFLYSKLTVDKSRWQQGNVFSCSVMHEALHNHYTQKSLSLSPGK
Sequence of Cyno in house BCMA (as listed by the source): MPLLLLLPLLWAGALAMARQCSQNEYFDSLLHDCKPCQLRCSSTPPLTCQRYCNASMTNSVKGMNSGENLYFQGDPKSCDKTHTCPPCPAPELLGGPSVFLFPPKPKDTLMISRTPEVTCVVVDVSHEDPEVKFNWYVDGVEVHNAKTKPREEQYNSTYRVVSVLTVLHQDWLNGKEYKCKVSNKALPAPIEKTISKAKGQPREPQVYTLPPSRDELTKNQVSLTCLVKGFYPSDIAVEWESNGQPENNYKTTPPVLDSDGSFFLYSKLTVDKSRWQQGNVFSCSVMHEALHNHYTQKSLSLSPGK
Sequence of BAFF-R-Fc (Q96RJ3 1-78 limits assumed): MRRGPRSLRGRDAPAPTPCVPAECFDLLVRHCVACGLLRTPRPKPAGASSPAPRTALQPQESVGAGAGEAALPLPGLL
Sequence of BCMA-Fc (Q02223 4-53 limits assumed): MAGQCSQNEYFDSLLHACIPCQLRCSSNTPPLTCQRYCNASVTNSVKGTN

B1: CA8 Chimera: chimeric anti-BCMA antibody: murine CA8 VH (SEQ ID NO:7) and VL (SEQ ID NO:9) on human γ1 and kappa constant regions (antibody, V domains shown)
VH: EVQLQQSGAVLARPGASVKMSCKGSGYTFTNYWMHWVKQRPGQGLEWIGATYRGHSDTYYNQKFKGKAKLTAVTSTSTAYMELSSLTNEDSAVYYCTRGAIYNGYDVLDNWGQGTLVTVSS
VL: DIQLTQTTSSLSASLGDRVTISCSASQDISNYLNWYQQKPDGTVELVIYYTSNLHSGVPSRFSGSGSGTDYSLTIGYLEPEDVATYYCQQYRKLPWTFGGGSKLEIKR
modifications: human IgG1 and kappa constant regions; mus musculus
B1 was tested, and the “binding to BCMA-Fc” value (BCMA-Fc) was “specific for binding to BCMA”, the “binding to TACI-Fc” value (TACI-Fc; listed as CA8) was “not to TACI” and the “binding to TACI-Fc” value (TACI-Fc; listed as CA8 chimera antibody) was “does not bind”. For the same molecule, the “binding to BAFF-R-Fc” value (BAFF-R-Fc) was “does not bind”, the “binding to multiple myeloma cell lines by FACS (MFI)” value [1] was “bound to multiple myeloma cell lines H929, OPM-2, JJN-3 & U266 in a dose dependent manner” and the ka (Human in house BCMA; Run 1, Human in house BCMA) was 2.41E+05. It also gave a kd (Human in house BCMA; Run 1, Human in house BCMA) of 1.25E−04, a ka (Human in house BCMA; Run 2, Human in house BCMA) of 2.51E+05 and a kd (Human in house BCMA; Run 2, Human in house BCMA) of 1.03E−04. For the same molecule, the ka (Cyno in house BCMA; in M-1s-1 (unit assumed)) was 1.15E+06, the kd (Cyno in house BCMA; in s-1 (unit assumed)) was 3.49E−04 and the “ADCC activity (specific lysis, europium release)” value [2] was “killed BCMA expressing target cells via ADCC”. For the same molecule, the growth inhibitory activity [3] was “no significant growth inhibitory activity”.
